The target of this data set is GST-MSY3 phosphorylated in vitro by Akt (UniProt Q9JKB3). As to the kind of experiment: EMSA. The settings on record: prior phosphorylation by Akt; binding reduced more than 50%; EMSA per earlier protocol (ref 16), 8% non-denaturing polyacrylamide gel; binding buffer, pH and temperature not given. Kinase pre-treatment: 10 mM MgCl2, 2 mM ….

Where only a bound is given, the exact number is not on record here.

Chain of GST-MSY3 phosphorylated in vitro by Akt (Q9JKB3 whole entry): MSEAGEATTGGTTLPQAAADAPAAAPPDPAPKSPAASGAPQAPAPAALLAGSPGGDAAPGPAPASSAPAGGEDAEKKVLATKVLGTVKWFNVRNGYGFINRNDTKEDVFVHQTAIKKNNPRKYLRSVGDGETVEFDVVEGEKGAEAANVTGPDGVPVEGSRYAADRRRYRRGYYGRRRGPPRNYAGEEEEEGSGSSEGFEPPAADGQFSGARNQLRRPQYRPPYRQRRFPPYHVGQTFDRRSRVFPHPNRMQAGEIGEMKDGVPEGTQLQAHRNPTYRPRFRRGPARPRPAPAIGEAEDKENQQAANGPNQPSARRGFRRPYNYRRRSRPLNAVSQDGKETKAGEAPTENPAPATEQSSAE

Turning to “TCTTGATGTGCAGCAACAGCT (double strand) [MYOwt (myogHCE)]”, the binding signal (% of unphosphorylated GST-MSY3) is less than 50.
